# Experimental data as given in patent US20260184782A1 (TWIST BIOSCIENCE, published 2026).
# T1: recombinant human TIGIT (human, UniProt Q495A1 22-141, limits assumed)
# T1 construct: recombinant human TIGIT used in Carterra SPR; also called hTIGIT
# T1 sequence (looked up): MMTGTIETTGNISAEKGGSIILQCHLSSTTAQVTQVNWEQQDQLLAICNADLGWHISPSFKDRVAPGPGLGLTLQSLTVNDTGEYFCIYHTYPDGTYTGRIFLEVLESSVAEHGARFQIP
# Target: T1, recombinant human TIGIT
# Assay: SPR Carterra, average
# Method: Binding affinities of VHH-Fc proteins to recombinant human TIGIT were measured by SPR using a Carterra instrument (Table 10A). […] Average values reported from measurements from 1-2 samples.
Binder,Kd,koff,kon
"TIGIT-SC80 (Fc fusion, VHH-Fc fusion in assay) VHH: EVQLVESGGGLVQPGGSLRLSCAASGNIPPINAMGWFRQAPGKEREFVAAINYSGGSTYYADSVKGRFTISADNSKNTAYLQMNSLKPEDTAVYYCARWHYDILTGYYWLDSWGQGTLVTVSS",28.3 nM,0.00179 s⁻¹,63200 M⁻¹ s⁻¹
"TIGIT-SC79 (Fc fusion, VHH-Fc fusion in assay) VHH: EVQLVESGGGLVQPGGSLRLSCAASGSILSINTMGWFRQAPGKEREFVAAITSAGGTTYYADSVKGRFTISADNSKNTAYLQMNSLKPEDTAVYYCARWHYDILTGYYWLDSWGQGTLVTVSS",56 nM,0.00445 s⁻¹,79500 M⁻¹ s⁻¹
"TIGIT-SC119 (Fc fusion, VHH-Fc fusion in assay) VHH: EVQLVESGGGLVQPGGSLRLSCAASGNTFSGGFMGWFRQAPGKEREWVASVLRGGYTWYADSVKGRFTISADNSKNTAYLQMNSLKPEDTAVYYCAKDGGWFDPWGQGTLVTVSS",19.7 nM,0.00367 s⁻¹,196000 M⁻¹ s⁻¹
"TIGIT-SC37 (Fc fusion, VHH-Fc fusion in assay) VHH: EVQLVESGGGLVQPGGSLRLSCAASGNTFSGGFMGWFRQAPGKEREWVASVLRGGYTWYADSVKGRFTISADNSKNTAYLQMNSLKPEDTAVYYCVFGGVWQDVWGQGTLVTVSS",23.7 nM,0.00507 s⁻¹,214000 M⁻¹ s⁻¹
"TIGIT-SC165 (Fc fusion, VHH-Fc fusion in assay) VHH: EVQLVESGGGLVQPGGSLRLSCAASGNTFSGGFMGWFRQAPGKEREWVASVLRGGYTWYADSVKGRFTISADNSKNTAYLQMNSLKPEDTAVYYCTTEGSGWRNWGQGTLVTVSS",62.5 nM,0.00484 s⁻¹,93300 M⁻¹ s⁻¹
"TIGIT-SC120 (Fc fusion, VHH-Fc fusion in assay) VHH: EVQLVESGGGLVQPGGSLRLSCAASGFTFSPSWMGWFRQAPGKEREWVASVLRGGYTWYADSVKGRFTISADNSKNTAYLQMNSLKPEDTAVYYCAKDGGWFDPWGQGTLVTVSS",66.1 nM,0.00478 s⁻¹,67600 M⁻¹ s⁻¹
"TIGIT-SC167 (Fc fusion, VHH-Fc fusion in assay) VHH: EVQLVESGGGLVQPGGSLRLSCAASGRTFSFMGWFRQAPGKEREWVASVLRGGYTWYADSVKGRFTISADNSKNTAYLQMNSLKPEDTAVYYCAREGSGYASDYWGQGTLVTVSS",21.3 nM,0.00349 s⁻¹,164000 M⁻¹ s⁻¹
"TIGIT-SC185 (Fc fusion, VHH-Fc fusion in assay) VHH: EVQLVESGGGLVQPGGSLRLSCAASGRTFSFMGWFRQAPGKEREWVASVLRGGYTWYADSVKGRFTISADNSKNTAYLQMNSLKPEDTAVYYCTTDRGYNWNYDWGQGTLVTVSS",80.3 nM,0.00621 s⁻¹,141000 M⁻¹ s⁻¹
"TIGIT-SC64 (Fc fusion, VHH-Fc fusion in assay) VHH: EVQLVESGGGLVQPGGSLRLSCAASGFAFSNFGMGWFRQAPGKERELVSAIGWSGASTYYADSVKGRFTISADNSKNTAYLQMNSLKPEDTAVYYCARRGRTIPFDYWGQGTLVTVSS",19.6 nM,0.00343 s⁻¹,207000 M⁻¹ s⁻¹
"TIGIT-SC154 (Fc fusion, VHH-Fc fusion in assay) VHH: EVQLVESGGGLVQPGGSLRLSCAASGFAFSSDWMGWFRQAPGKEREWVASVLRGGYTWYADSVKGRFTISADNSKNTAYLQMNSLKPEDTAVYYCAGDYRGFEMAFDPWGQGTLVTVSS",22.5 nM,0.00219 s⁻¹,130000 M⁻¹ s⁻¹
"TIGIT-SC56 (Fc fusion, VHH-Fc fusion in assay) VHH: EVQLVESGGGLVQPGGSLRLSCAASGNTFSGGFMGWFRQAPGKEREWVASVLRGGYTWYADSVKGRFTISADNSKNTAYLQMNSLKPEDTAVYYCAHSKGYNWFDPWGQGTLVTVSS",26.9 nM,0.000801 s⁻¹,29800 M⁻¹ s⁻¹
"TIGIT-SC2 (Fc fusion, VHH-Fc fusion in assay) VHH: EVQLVESGGGLVQPGGSLRLSCAASGFTLSSNWMGWFRQAPGKEREMVAAIDWSGGSALYADSVKGRFTISADNSKNTAYLQMNSLKPEDTAVYYCAKDALSNSARFDHWGQGTLVTVSS",22.1 nM,0.00274 s⁻¹,124000 M⁻¹ s⁻¹
"TIGIT-SC125 (Fc fusion, VHH-Fc fusion in assay) VHH: EVQLVESGGGLVQPGGSLRLSCAASGFTLSGNWMGWFRQAPGKEREMVAAIDWSGGSALYADSVKGRFTISADNSKNTAYLQMNSLKPEDTAVYYCAKDALSNSARFDHWGQGTLVTVSS",61.3 nM,0.00807 s⁻¹,142000 M⁻¹ s⁻¹
"TIGIT-SC124 (Fc fusion, VHH-Fc fusion in assay) VHH: EVQLVESGGGLVQPGGSLRLSCAASGSIFSSNWMGWFRQAPGKEREMVAAIDWSGGSALYADSVKGRFTISADNSKNTAYLQMNSLKPEDTAVYYCAKDALSNSARFDHWGQGTLVTVSS",51 nM,0.00531 s⁻¹,105000 M⁻¹ s⁻¹
"TIGIT-SC136 (Fc fusion, VHH-Fc fusion in assay) VHH: EVQLVESGGGLVQPGGSLRLSCAASGFTLENNMMGWFRQAPGKEREFVAAISRSGTLKAYADSVKGRFTISADNSKNTAYLQMNSLKPEDTAVYYCARGGELTTFYFGYWGQGTLVTVSS",20.4 nM,0.00254 s⁻¹,209000 M⁻¹ s⁻¹
"TIGIT-SC150 (Fc fusion, VHH-Fc fusion in assay) VHH: EVQLVESGGGLVQPGGSLRLSCAASGFTLENNMMGWFRQAPGKEREFVAAISRSGTLKAYADSVKGRFTISADNSKNTAYLQVNSLKPEDTAVYYCVRVRGYSGYDCDYWGQGTLVTVSS",99.8 nM,0.0212 s⁻¹,212000 M⁻¹ s⁻¹
"TIGIT-SC28 (Fc fusion, VHH-Fc fusion in assay) VHH: EVQLVESGGGLVQPGGSLRLSCAASGRTFSTDAMGWFRQAPGKEREFVATINWKDGFTYYADSVKGRFTISADNSKNTAYLQMNSLKPEDTAVYYCAGVGHDYGDYLFDYWGQGTLVTVSS",23.9 nM,0.00179 s⁻¹,75100 M⁻¹ s⁻¹
"TIGIT-SC89 (Fc fusion, VHH-Fc fusion in assay) VHH: EVQLVESGGGLVQPGGSLRLSCAASGSMSSINAMGWFRQAPGKEREFVAAINYEGDRTYYADSVKGRFTISADNSKNTAYLQMNSLKPEDTAVYYCARWTRGLVSGTYYYYMDVWGQGTLVTVSS",30.8 nM,0.00294 s⁻¹,106000 M⁻¹ s⁻¹

# Further binders by falling Kd, results first:
Kd,koff,kon,Binder
883 nM,0.00528 s⁻¹,8880 M⁻¹ s⁻¹,"TIGIT-SC189 (Fc fusion, VHH-Fc fusion in assay) VHH: EVQLVESGGGLVQPGGSLRLSCAASGNTFSGGFMGWFRQAPGKEREWVASVLRGGYTWYADSVKGRFTISADNSKNTAYLQMNSLKPEDTAVYYCVTDVGAPDYWGQGTLVTVSS"
52.4 nM,0.00428 s⁻¹,81600 M⁻¹ s⁻¹,"TIGIT-SC99 (Fc fusion, VHH-Fc fusion in assay) VHH: EVQLVESGGGLVQPGGSLRLSCAASGSIFSMNTMGWFRQAPGKEREFVGAINWSGGSTIYADSVKGRFTISADNSKNTAYLQMNSLKPEDTAVYYCARWDYDILTNYYWLEYWGQGTLVTVSS"
47.9 nM,0.00149 s⁻¹,31200 M⁻¹ s⁻¹,"TIGIT-SC17 (Fc fusion, VHH-Fc fusion in assay) VHH: EVQLVESGGGLVQPGGSLRLSCAASGFDFSVSWMGWFRQAPGKEREWVASVLRGGYTWYADSVKGRFTISADNSKNTAYLQMNSLKPEDTAVYYCAREGSWFDYWGQGTLVTVSS"
32.8 nM,0.0164 s⁻¹,501000 M⁻¹ s⁻¹,"TIGIT-SC127 (Fc fusion, VHH-Fc fusion in assay) VHH: EVQLVESGGGLVQPGGSLRLSCAASGSIFSGNAMGWFRQAPGKERELVAAISNSASSTVYADSVKGRFTISADNSKNTAYLQMNSLKPEDTAVYYCARDWNLFDYWGQGTLVTVSS"
28.7 nM,0.00564 s⁻¹,196000 M⁻¹ s⁻¹,"TIGIT-SC87 (Fc fusion, VHH-Fc fusion in assay) VHH: EVQLVESGGGLVQPGGSLRLSCAASGSIDTINTMGWFRQAPGKEREFVAAITPSSRTTYYVDSVKGRFTISADNSKNTAYLQMNSLKPEDTAVYYCARWGGVTFGGVYPLEYWGQGTLVTVSS"
24.3 nM,0.0015 s⁻¹,78400 M⁻¹ s⁻¹,"TIGIT-SC190 (Fc fusion, VHH-Fc fusion in assay) VHH: EVQLVESGGGLVQPGGSLRLSCAASGFTFDRSWMGWFRQAPGKEREWVASVLRGGYTWYADSVKGRFTISADNSKNTAYLQMNSLKPEDTAVYYCVTDVGAPDYWGQGTLVTVSS"
24 nM,0.0115 s⁻¹,383000 M⁻¹ s⁻¹,"TIGIT-SC147 (Fc fusion, VHH-Fc fusion in assay) VHH: EVQLVESGGGLVQPGGSLRLSCAASGTITSAVFMGWFRQAPGKEREFVAAVIWRGGSLKSYADSVKGRFTISADNSKNTAYLQMNSLKPEDTAVYYCAKLAVAGNYYYYGMDVWGQGTLVTVSS"
22.8 nM,0.0049 s⁻¹,221000 M⁻¹ s⁻¹,"TIGIT-SC12 (Fc fusion, VHH-Fc fusion in assay) VHH: EVQLVESGGGLVQPGGSLRLSCAASGRTFSAYGMGWFRQAPGKEREFVAAITPSSRTTYYADSVKGRFTISADNSKNTAYLQMNSLKPEDTAVYYCAKDNWGEWLMPWWGQGTLVTVSS"
21.8 nM,0.00276 s⁻¹,126000 M⁻¹ s⁻¹,"TIGIT-SC73 (Fc fusion, VHH-Fc fusion in assay) VHH: EVQLVESGGGLVQPGGSLRLSCAASGSSFSLADYAMGWFRQAPGKEREFVAAISYNVGTTYYADSVKGRFTISADNSKNTAYLQMNSLKPEDTAVYYCARWSAKRHSDTMTYYMDVWGQGTLVTVSS"
21.7 nM,0.0101 s⁻¹,465000 M⁻¹ s⁻¹,"TIGIT-SC180 (Fc fusion, VHH-Fc fusion in assay) VHH: EVQLVESGGGLVQPGGSLRLSCAASGFTLNDYAMGWFRQAPGKERELVAWIARYDGSTLYADSVKGRFTISADNSKNTAYLQMNSLKPEDTAVYYCASEVASGETDYWGQGTLVTVSS"
19.2 nM,0.0118 s⁻¹,631000 M⁻¹ s⁻¹,"TIGIT-SC41 (Fc fusion, VHH-Fc fusion in assay) VHH: EVQLVESGGGLVQPGGSLRLSCAASGMTTIGPMGWFRQAPGKEREFVASIAWGDGNTYYADSVKGRFTISADNSKNTAYLQMNSLKPEDTAVYYCVRGGSRTLWGQGTLVTVSS"
